Literature values in PMC3773300 (Journal of inorganic biochemistry, 2013).

Conditions: Mb

For “Mb: Myoglobin, heme protein involved in reversible O2 binding”, the redox potential is listed as 59 mV.
